How the values were obtained:
[1] = molecular target: HLA-B*08:03; assay: IEDB peptide-MHC binding, purified MHC/direct/fluorescence; filed as Kd, often an IC50 or EC50 that approximates it; ≥ and ≤ were set here for values at or beyond the usual limits of such assays; conditions: source organism: Bacillus cereus H3081.97
[2] = molecular target: HLA-A*01:01; assay: IEDB peptide-MHC binding, purified MHC/competitive/fluorescence; filed as Kd, often an IC50 or EC50 that approximates it; ≥ and ≤ were set here for values at or beyond the usual limits of such assays
[3] = molecular target: HLA-A*11:01; assay: as above
[4] = molecular target: HLA-A*26:01; assay: as above
[5] = molecular target: HLA-A*30:01; assay: as above
[6] = molecular target: HLA-B*08:02; assay: as above; conditions: source organism: Human immunodeficiency virus 1
[7] = molecular target: HLA-B*15:01; assay: as above
[8] = molecular target: HLA-B*15:17; assay: as above
[9] = molecular target: HLA-B*39:01; assay: as above; conditions: source organism: Human immunodeficiency virus 1
[10] = molecular target: HLA-B*57:01; assay: as above
[11] = molecular target: HLA-A*02:01; assay: as above; conditions: source organism: Salmonella enterica subsp. enterica serovar Typhi
[12] = molecular target: HLA-A*02:03; assay: as above; conditions: source organism: Salmonella enterica subsp. enterica serovar Typhi
[13] = molecular target: HLA-A*02:06; assay: as above; conditions: source organism: Salmonella enterica subsp. enterica serovar Typhi
[14] = molecular target: HLA-A*03:01; assay: as above; conditions: source organism: Salmonella enterica subsp. enterica serovar Typhi
[15] = molecular target: HLA-A*31:01; assay: as above; conditions: source organism: Salmonella enterica subsp. enterica serovar Typhi
[16] = molecular target: HLA-A*69:01; assay: as above; conditions: source organism: Salmonella enterica subsp. enterica serovar Typhi
[17] = molecular target: HLA-B*08:01; assay: as above; conditions: source organism: Salmonella enterica subsp. enterica serovar Typhi
[18] = molecular target: HLA-B*15:09; assay: as above; conditions: source organism: Salmonella enterica subsp. enterica serovar Typhi
[19] = molecular target: HLA-B*27:05; assay: as above; conditions: source organism: Salmonella enterica subsp. enterica serovar Typhi
[20] = molecular target: HLA-B*38:01; assay: as above; conditions: source organism: Salmonella enterica subsp. enterica serovar Typhi
[21] = molecular target: HLA-B*40:01; assay: as above; conditions: source organism: Salmonella enterica subsp. enterica serovar Typhi
[22] = molecular target: HLA-B*48:01; assay: as above; conditions: source organism: Salmonella enterica subsp. enterica serovar Typhi
[23] = molecular target: HLA-B*58:01; assay: as above; conditions: source organism: Salmonella enterica subsp. enterica serovar Typhi
[24] = source organism: Human immunodeficiency virus 1
[25] = source organism: Salmonella enterica subsp. enterica serovar Typhi

For FPKVRAQEL, the Kd [1] was 209 nM.
In the case of GTEEIRSLY, the Kd [2, 24] is reported as 12 nM, the Kd [3, 24] is reported as ≥ 20000 nM and the Kd [4, 24] is reported as 429 nM. The Kd [5, 24] was 13000 nM, the Kd [6] was ≥ 20000 nM and the Kd [7, 24] was ≥ 20000 nM. The Kd [8, 24] was 60.5 nM, the Kd [9] was ≥ 20000 nM and the Kd [10, 24] was ≥ 20000 nM.
In the case of MSAIVSCRY, the Kd [2, 25] is reported as 4 nM, the Kd [11] is reported as ≥ 20000 nM and the Kd [12] is reported as ≥ 20000 nM. The Kd [13] was ≥ 20000 nM, the Kd [14] was 882 nM and the Kd [3, 25] was ≥ 20000 nM. The Kd [4, 25] was 235 nM, the Kd [5, 25] was 1400 nM and the Kd [15] was ≥ 20000 nM. The Kd [16] was ≥ 20000 nM, the Kd [17] was ≥ 20000 nM and the Kd [7, 25] was 51.2 nM. For the same sequence, the Kd [18] was ≥ 20000 nM, the Kd [8, 25] was 2.4 nM and the Kd [19] was ≥ 20000 nM. For the same sequence, the Kd [20] was ≥ 20000 nM, the Kd [21] was ≥ 20000 nM and the Kd [22] was ≥ 20000 nM. The Kd [10, 25] was 237 nM and the Kd [23] was 27.5 nM.
